Biological target: the molecule itself
Test: non-reducing SDS-PAGE with immunoblot; lysates of virus-infected MDBK cells separated by SDS-PAGE without DTT (compared with +DTT), immunoblotted with anti-UL49.5 or anti-gM; shows only covalently (disulfide) linked complexes

B1: BHV-1 envelope glycoprotein M (gM) (natural protein)
chain: MAGSAQPAAVHWRLWLAQVGVFAALALLLLITLIGAASPGAGLPCFYAAIVNYNARNLSADGGAWAQRELGARHPALFLETPTTAAFSAYTAVVLLAVAAFDVAAAIIIRRENSGGFAAAYHMNALATLATPPGALLLGALAAWTLQAAVLLLSHKIMVLAAATYLAHAGAAAAFVGLFCTAGLPGAEYAQAVHALRERSPRAHRLLGPGRAVMINLAGGLLALIIGTAPLMLGQLLGAGLGLSLAQTVVAGVTVFCLAAVLFLVLTELVLSRYTQVLPGPAFGTLVAASCIAVASHDYFHQLRGVVRTQAPGLPLGVKLALAGVALLAVAMLVLRLVRACLHHRRKGSAFYGHVSAARQQAARYIARARSSRGMAPLEGDAAALLDRGVASDDEEAVYEADARPARQPYR
notes: glycoprotein M of bovine herpesvirus type 1, encoded by the UL10 gene; gM open reading frame nt 84816 to 86051 of GenBank JX898220 (complementary strand; residues up to 411); expressed from the viral genome; 36-kDa immature, EndoH-sensitive gM in infections with the C42S mutants; also called 43-kDa mature gM; 36-kDa immature gM; source: BHV-1 wt or UL49.5 mutant virus-infected MDBK cells, in …
B1 was tested, and the “stoichiometry N” value was 2.

Source: PMC6002714, “Bovine Herpesvirus 1 UL49.5 Interacts with gM and VP22 To Ensure Virus Cell-to-Cell Spread and Virion Incorporation: Novel Role for VP22 in gM-Independent UL49.5 Virion Incorporation” (Journal of Virology, 2018)
